Laboratory results taken from the nanobody polyreactivity screen of Harvey et al. (2022).

Assay: yeast display, Sf9 membrane polyspecificity reagent, FACS + sequencing; frameworks hold sequencing errors
Method in brief: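 Polyreactivity labels are assigned by the sorting gate from which each nanobody was recovered. The gates were low and high (top ~1%), set on anti-HA fluorescence for expression and streptavidin fluorescence for reagent binding. Before sorting, galactose-induced (36–48 hours) yeast display cells were stained for 1 hour at 4 °C with 10% biotinylated, detergent-solubilized Sf9 membrane reagent.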

## QDQLVESGGGLLQAGGILRLRCAASGSILNYYAMGWYIQAPGKERELVAAISSSDGRTYYAYSEKGRFTISRDNAKNTVYLQMNSLKPEDSAVYYCAAEGTYSYSSWYEYWGQGTQVTLSS
  polyreactivity (PSR sort gate): high polyreactivity

## QVQLVESGGGLVQAGGSLRLSCAASGIIFPPYAMGWYRQAPGKEREFVAGITSSGGTYYADSVKGRFTISRDNAKNTVFLQMNSLKPDDTAVYYCAARQGNLRRGFRWFNYWGQGTQVTVSS
  polyreactivity (PSR sort gate): high polyreactivity

## QVQLVESGGGLVQAGGSLRLSCAASGRNLLGNAMGGYRQAPGKEREFVAAISYRGGSTYYADSVKGRFTISRDNEKNTVYLQMNSLKPVDNAVPYCAASSLKYSRFDYGGQGTQVTVSS
  polyreactivity (PSR sort gate): low polyreactivity

## QVQLVESGGGLVQAGGSLRLSCAASGSTFAVNAMRSYRQAPGKEREFVAAISFGTGSTYYADSVKGRFTISRDNAKKTVYLQMNSLKPEDTAVYYCNAEASGYYWWWGYDYWGQGTQVTVSS
  polyreactivity (PSR sort gate): low polyreactivity

## QVQLVESGGGLVQAGGSLRLSCAAYEFIFARNGMGWSRQAPGKERELVAAITNSGSTYADSVKGRFTISRDNAKNTVYLQMNSLKPEDTAVYYCNKDPGNVSSYNGGGYWGQGTQVTVSS
  polyreactivity (PSR sort gate): low polyreactivity

## QVQLVESGGGLVQAGGSLRLSCAASGSTFYLNDMGWYRQAPGKERELVAAIDWSGGSTYYAVSVKGRFTISRDNAKNTVYLQMNSLKPEDTAVYYCAARLVYEWRRLDYFIAWDYWGQGTQVTVSS
  polyreactivity (PSR sort gate): low polyreactivity

## QVQLVESGGGLVQAGGSLRLSCAASGRTFVYNAMGWYRQAPGKEREMVSGITNGGSTNYADSVKGRFTISRDNAKNTVYLQMNSLKPEDTAVYYCAADSRVYPYYFGDFGYWGQGTQVTVSS
  polyreactivity (PSR sort gate): low polyreactivity

## QVQLVESGGGLVQAGGSLRLSCAASGIIFGYNAMGWYRQAPGKERELVAAINQDGSSTYYADSVKGRFTISRDNAKNTVYLQMNSLKPEDTAVYYCNARGVPRQDARMGYWGQGTQVTVSS
  polyreactivity (PSR sort gate): low polyreactivity

## QVQLVESGGGLVQAGGSLRLSCAASGYTSSLNAMGWYRQAPGKERELVARITTDGTSTYYADSVKGRFTISRDNANNTVYLQMNSLKPEDTAVYYCAAEYSYVQFGFGYWGQGTQVTVSS
  polyreactivity (PSR sort gate): low polyreactivity

## QVQLVESGGGLVQAGGSLRLSCAASVFTVYGMGWYRQAPGKERELVAAISTGGNTYYADSVKGRFTISRDNAKNTVYLQMNSLKPEDTAVYYCNRRYRYYGLWYGYWGQGTQVTVSS
  polyreactivity (PSR sort gate): high polyreactivity

## QVQLVESGGGLVQAGGSLRLSCAASGSIFAFYAMGLYRQAPGKERELVAAITASGGRTYYADSVKGRFTISRDIAKNTVYLQMNSLKPEDTAVYYCAAERQTIYIGLYGYPGWSQYNYWGQGTQVTVSS
  polyreactivity (PSR sort gate): low polyreactivity

## QVQLVESGGGLVQAGGSLRLSCAASGSTSPAYAMGWYRQAPGKERELVAVITGSGASTYYADSVKGRFTISRDNAKNTVYLQMNSMKPEDTAVYYCAADVGFGVVFYDYWGQGTQVTVSS
  polyreactivity (PSR sort gate): low polyreactivity

## QVQLVESGGGLVQAGGSLRLSCAASGSTFGEYAMGWYRQAPGKERELVAAISWSGDTTYYADSVKGRFTISRDNAKNTVYLQMNSLKPEDTAVYYCAARDYDRVGEDYWGQGTQVTVSS
  polyreactivity (PSR sort gate): low polyreactivity

## QVQLVEAGGGLVQAGGSLRLSCAASGRTFRYYAMRWYRQATGKERELVAAITTGSSTYYADSVKGRFTISRDNAKNTVYLQMNSLKPEDTAVYYCAADHLYWGLEYESWGQGTQVTVSS
  polyreactivity (PSR sort gate): low polyreactivity

## QVQLVESGGGLVQAGGSLRLSCAASGRIFKVYTMGWYRQAPGKERELVATITRSGTSTYYADSVKGRFTISRDIAKNTVYLQMNSLKPEDTAVYYCARLVGYKFSYDYWGQGTQVTVSS
  polyreactivity (PSR sort gate): high polyreactivity

## QVQLVESGGGLVQAGGSLRLICAASGSTFDANAMGWYRQAPGKERELVAAITSNGGSTYYADSVKARFTISRDNAKNTVYLQMNSLKPEDTAVYYCATEQHTVQDYDFWGQGTQVTVSS
  polyreactivity (PSR sort gate): low polyreactivity

## QVQLVESGGGLFQAGGSLRLSCADSGRIFTSNAMGWYRQATGKVRELVAVISRRGGSTYYADSVKGRFTISRDNAKNTVYLQMNSLKPEDTAVYYCNARVYWYYPMDYWGQGTQVTVSS
  polyreactivity (PSR sort gate): low polyreactivity

## QVQLVESGGGLVQAGGSLRLSCAASGITFRYYVMGWYRQAPGKERELVAAISWSGGSTYYADSVKGRFTISRDNAKNTVYLQMNCLKPEDTAVYYCAAYKRRSNGRYWTYDYWGQGTQVTVSS
  polyreactivity (PSR sort gate): high polyreactivity

## QVQLVESGVGLVQAGGSLRLSCAASGSTFEVHSMGWYRQAPGKERELVATITRSGGSTYYADSVKGRFTISRDNGKNTVYLQMNSLKPEDTAVYYCNALWELKWGQGTQVTVSS
  polyreactivity (PSR sort gate): low polyreactivity

## QFQLVESGGGLVQARGSLRLSCAASGSTFSQYAMGWYRQAPGKERELVAAITTSDGTTNYADSVKGRFTISRDNAKNTVFLQMNILQPEDTAVYYCNNEYFYYSFGYWGQGTQVTVSS
  polyreactivity (PSR sort gate): low polyreactivity

## QVQLVESGGGLVQAGGSLRLSCAASGNNLRYYAMGWYRQAPGKERELVAAITSSGGSTYYADSVKGRFTISRDNAKNTVYLKMNSLKPEDTAVYYCAAVFSYSRYNYWGQGTQVTVSS
  polyreactivity (PSR sort gate): high polyreactivity
